In US20100015650:

System: BRB1 tyrosine kinase substrate peptide
Sequence (chain, as listed by the source): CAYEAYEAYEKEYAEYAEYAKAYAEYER

Sequence of TRKA (NTRK1) (chain, as listed by the source): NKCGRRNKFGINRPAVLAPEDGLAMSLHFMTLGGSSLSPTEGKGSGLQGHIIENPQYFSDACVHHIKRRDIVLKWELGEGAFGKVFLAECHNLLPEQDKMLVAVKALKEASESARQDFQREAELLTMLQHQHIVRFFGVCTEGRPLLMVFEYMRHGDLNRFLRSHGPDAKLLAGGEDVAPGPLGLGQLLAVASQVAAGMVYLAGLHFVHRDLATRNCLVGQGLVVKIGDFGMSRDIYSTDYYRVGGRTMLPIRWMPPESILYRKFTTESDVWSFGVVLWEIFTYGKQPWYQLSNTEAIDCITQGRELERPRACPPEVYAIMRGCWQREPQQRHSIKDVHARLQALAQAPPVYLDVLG
Sequence of TRKC (NTRK3) (chain, as listed by the source): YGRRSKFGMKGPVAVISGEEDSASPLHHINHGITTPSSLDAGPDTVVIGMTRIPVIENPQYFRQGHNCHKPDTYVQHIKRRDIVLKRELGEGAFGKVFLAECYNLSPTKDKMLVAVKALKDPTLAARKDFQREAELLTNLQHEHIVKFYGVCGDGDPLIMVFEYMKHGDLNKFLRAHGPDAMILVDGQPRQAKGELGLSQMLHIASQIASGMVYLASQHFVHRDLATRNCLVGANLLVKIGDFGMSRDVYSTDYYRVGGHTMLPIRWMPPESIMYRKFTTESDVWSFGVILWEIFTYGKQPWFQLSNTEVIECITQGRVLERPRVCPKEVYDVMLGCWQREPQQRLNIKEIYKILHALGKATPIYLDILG
Sequence of EphA7 (chain, as listed by the source): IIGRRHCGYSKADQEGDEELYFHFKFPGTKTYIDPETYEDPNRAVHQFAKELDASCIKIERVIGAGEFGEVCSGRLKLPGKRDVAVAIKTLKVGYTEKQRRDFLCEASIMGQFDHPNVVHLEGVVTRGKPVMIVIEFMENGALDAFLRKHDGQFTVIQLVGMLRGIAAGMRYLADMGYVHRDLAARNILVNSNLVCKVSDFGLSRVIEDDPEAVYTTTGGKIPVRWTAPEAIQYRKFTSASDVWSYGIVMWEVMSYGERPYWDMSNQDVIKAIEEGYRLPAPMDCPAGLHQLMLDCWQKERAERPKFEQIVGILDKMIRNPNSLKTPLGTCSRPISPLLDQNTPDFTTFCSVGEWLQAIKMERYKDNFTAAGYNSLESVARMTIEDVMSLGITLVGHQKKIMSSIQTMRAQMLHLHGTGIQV
Sequence of BLK (chain, as listed by the source): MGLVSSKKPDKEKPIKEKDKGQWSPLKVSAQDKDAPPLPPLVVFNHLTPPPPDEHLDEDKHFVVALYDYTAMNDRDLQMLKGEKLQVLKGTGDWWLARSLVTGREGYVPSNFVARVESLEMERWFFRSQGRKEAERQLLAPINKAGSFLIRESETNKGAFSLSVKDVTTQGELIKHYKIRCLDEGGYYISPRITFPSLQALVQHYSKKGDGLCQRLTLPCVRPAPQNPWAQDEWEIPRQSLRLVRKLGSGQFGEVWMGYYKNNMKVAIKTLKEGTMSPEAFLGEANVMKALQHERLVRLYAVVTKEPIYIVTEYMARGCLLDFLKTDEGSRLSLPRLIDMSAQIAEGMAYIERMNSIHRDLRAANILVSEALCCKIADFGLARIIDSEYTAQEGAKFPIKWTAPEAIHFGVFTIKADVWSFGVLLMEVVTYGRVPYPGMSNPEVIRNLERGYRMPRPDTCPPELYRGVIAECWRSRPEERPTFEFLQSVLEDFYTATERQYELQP
Sequence of TRKB (NTRK2) (chain, as listed by the source): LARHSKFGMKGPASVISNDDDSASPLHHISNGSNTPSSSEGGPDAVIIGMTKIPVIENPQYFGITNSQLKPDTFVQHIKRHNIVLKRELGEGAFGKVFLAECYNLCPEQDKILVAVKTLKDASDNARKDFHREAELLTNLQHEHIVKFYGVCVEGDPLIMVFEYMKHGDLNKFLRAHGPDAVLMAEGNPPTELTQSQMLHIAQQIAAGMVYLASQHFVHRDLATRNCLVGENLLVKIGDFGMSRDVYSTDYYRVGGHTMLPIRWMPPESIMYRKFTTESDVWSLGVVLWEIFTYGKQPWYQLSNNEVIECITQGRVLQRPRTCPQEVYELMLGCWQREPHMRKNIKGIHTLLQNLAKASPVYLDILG
Sequence of YES (chain, as listed by the source): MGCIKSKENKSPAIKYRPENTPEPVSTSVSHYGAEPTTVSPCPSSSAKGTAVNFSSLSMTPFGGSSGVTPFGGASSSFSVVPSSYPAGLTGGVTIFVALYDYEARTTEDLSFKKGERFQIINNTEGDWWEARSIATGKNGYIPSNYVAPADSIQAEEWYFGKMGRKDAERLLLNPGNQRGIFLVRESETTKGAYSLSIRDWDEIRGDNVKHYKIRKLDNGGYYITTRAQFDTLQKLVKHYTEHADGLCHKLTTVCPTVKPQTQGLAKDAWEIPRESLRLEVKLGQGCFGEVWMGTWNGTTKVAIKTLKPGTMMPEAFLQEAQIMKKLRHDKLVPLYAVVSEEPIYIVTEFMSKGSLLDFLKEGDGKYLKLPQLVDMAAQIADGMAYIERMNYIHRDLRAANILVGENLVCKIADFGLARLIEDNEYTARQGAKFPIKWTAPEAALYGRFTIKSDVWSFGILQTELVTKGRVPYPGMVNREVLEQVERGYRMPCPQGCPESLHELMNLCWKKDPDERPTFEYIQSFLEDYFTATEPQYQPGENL

Row | Substance | Signal to Noise ratio with BRB1 Peptide (TR-FRET kinase assay; kinase 0.5 nM) | other results
1 | BLK | 31 | –
2 | EphA7 | 17.2 | –
3 | FGR | – | Signal to Noise ratio with BRB1 Peptide (TR-FRET kinase assay; kinase 0.1 nM): 29.3
4 | LYNa | 32.5 | –
5 | TRKA (NTRK1) | 23.2 | –
6 | TRKB (NTRK2) | 28 | –
7 | TRKC (NTRK3) | 6.4 | –
8 | YES | – | Signal to Noise ratio with BRB1 Peptide (TR-FRET kinase assay; kinase 0.25 nM): 28
